± gives the uncertainty stated by the source.
Test: amyloid nucleation score (Sup35N fusion, yeast selection) (log enrichment); library NNK3; higher = more nucleation; inactive = no reads after selection
Outline: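 In psi-negative yeast, Sup35N fusions carrying peptides of 20 random codons were induced with 100 μM copper sulfate for 24 hours. The cells then grew 7 days at 30°C on medium lacking adenine and uracil, and plasmid inserts from input and output were Illumina-sequenced, excluding sequences with under 100 input reads. Nucleation score is the DiMSum log enrichment of output over input reads, centred on the mode score of non-aggregating sequences.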
IALSVDYLRFIFKNHSA gave an amyloid nucleation score of -0.464 ± 0.66.
IALTWDSVIYSTYLGVNFLT showed an amyloid nucleation score of 0.627 ± 0.23.
With IANRKSGMKSTRKKESWH the amyloid nucleation score was “inactive”.
For IAVCHLFLQYLCSRSTFMTL, the amyloid nucleation score was “inactive”.
For ICAMAYADRTFSTSKGSK, the amyloid nucleation score was “inactive”.
Work on ICGNPLVLLMNNSVRLG yielded an amyloid nucleation score of 0.092 ± 0.64.
With ICYTMST the amyloid nucleation score was “inactive”.
IDCILVTGLHVDLLEWQKRQ gave an amyloid nucleation score of 2.03 ± 0.086.
With IDCLFRLAGYWSALWTFVLF the amyloid nucleation score was “inactive”.
With IDDQLCQ the amyloid nucleation score was “inactive”.
In the case of IDFILWQFVMF, the amyloid nucleation score is reported as “inactive”.
Substance IDGWRGELVMTYN has an amyloid nucleation score of 0.025 ± 0.48.
In the case of IDLFRSFSLAVLVVYMSEDW, the amyloid nucleation score is reported as “inactive”.
Substance IDLNMQMELHGWHRVCWGCY has an amyloid nucleation score of 0.657 ± 0.22.
In the case of IDLVLFSTCVNALVVESFGG, the amyloid nucleation score is reported as “inactive”.
For IDTISMG, the amyloid nucleation score was “inactive”.
In the case of IDTWFISFRCMFSGNYMYFL, the amyloid nucleation score is reported as “inactive”.
For IDVLV, the amyloid nucleation score was “inactive”.
With IDYAYGNVTNNPQKP the amyloid nucleation score was “inactive”.
For IEAMRNRWSFKY, the amyloid nucleation score was “inactive”.
In the case of IEFLFMYTWWAVLNSGSK, the amyloid nucleation score is reported as 0.999 ± 0.2.
In the case of IEGSYIDMFLYSYLMSGSLI, the amyloid nucleation score is reported as “inactive”.
For IEGVGCIFRDLGDFLRGPWG, the amyloid nucleation score was “inactive”.
In the case of IEPIECTMA, the amyloid nucleation score is reported as “inactive”.
With IEQPY the amyloid nucleation score was “inactive”.
With IESIH the amyloid nucleation score was “inactive”.
In the case of IESVRKHGGCTAFVSSWYVM, the amyloid nucleation score is reported as “inactive”.
In the case of IETPSGLRKIELFMTCYYTS, the amyloid nucleation score is reported as 0.431 ± 0.41.
With IEWLI the amyloid nucleation score was “inactive”.
In the case of IFACLHGAREVFLFQWLGFE, the amyloid nucleation score is reported as “inactive”.
With IFACVLHVVTW the amyloid nucleation score was “inactive”.
IFCAKSIIGIPGTDPRCRPD showed an amyloid nucleation score of 1.5 ± 0.13.
With IFCYPQAQS the amyloid nucleation score was “inactive”.
In the case of IFEVFSVNKV, the amyloid nucleation score is reported as “inactive”.
For IFHFAATHEWYIMYYIDGSP, the amyloid nucleation score was “inactive”.
For IFHMVVLVLAGKFILVISCS, the amyloid nucleation score was “inactive”.
With IFIAKLENTVSRLFTFCFIM the amyloid nucleation score was “inactive”.
For IFILTMSDWVFL, the amyloid nucleation score was 1.91 ± 0.062.
For IFIQLLPYVFSTVEVSDFVG, the amyloid nucleation score was 0.625 ± 0.38.
With IFNMSEYNKLECTLTLY the amyloid nucleation score was “inactive”.
For IFNNLTGFNNKGS, the amyloid nucleation score was “inactive”.
With IFSYLEEECDPRWRGPLKPL the amyloid nucleation score was “inactive”.
With IFTHVVEEFS the amyloid nucleation score was “inactive”.
In the case of IFVQAYLRGSEICALGDWRL, the amyloid nucleation score is reported as “inactive”.
With IFVRSLAQLGLIFDFHIFWE the amyloid nucleation score was “inactive”.
For IFVWGNNLTMSLSVFNNA, the amyloid nucleation score was 2.58 ± 0.072.
For IFWSFTGT, the amyloid nucleation score was “inactive”.
With IFWYEDKIYKMGWQFGGIAY the amyloid nucleation score was 1.1 ± 0.11.
In the case of IFYFHQFNCMPGLAFTSVIG, the amyloid nucleation score is reported as “inactive”.
With IGDMSLLLTCGGWSLIQLQA the amyloid nucleation score was “inactive”.
For IGFAGSVM, the amyloid nucleation score was “inactive”.
In the case of IGHSTTYHKRQECSLVQWSS, the amyloid nucleation score is reported as “inactive”.
For IGLRLVATLIDLRNADIGYG, the amyloid nucleation score was “inactive”.
For IGMMYVIGIYLIGGNYSIR, the amyloid nucleation score was “inactive”.
With IGNFRGL the amyloid nucleation score was “inactive”.
In the case of IGPIWVPYHMSIIRSLLFGI, the amyloid nucleation score is reported as “inactive”.
In the case of IGRVTSMGRMLHGNW, the amyloid nucleation score is reported as “inactive”.
In the case of IGTDWRARAMAALYI, the amyloid nucleation score is reported as “inactive”.
For IGTSAWLEKRASLLVCMKKA, the amyloid nucleation score was “inactive”.
With IGVIWRFVLWSGPRTDSQVS the amyloid nucleation score was “inactive”.
In the case of IGVQATVICYWRIMNRGHKR, the amyloid nucleation score is reported as “inactive”.
In the case of IGYVMFGTSSSAFRITYISK, the amyloid nucleation score is reported as “inactive”.
For IHCSDVGALRMYVPSTGPFS, the amyloid nucleation score was -0.213 ± 0.64.
With IHDMVQYERCDNRNSNRVHE the amyloid nucleation score was “inactive”.
For IHILTKVWFSCVRRSLS, the amyloid nucleation score was “inactive”.
For IHNGKDTLAVVWYGFLIMFW, the amyloid nucleation score was “inactive”.
With IHPPSGYPGSGLSLCCSKNS the amyloid nucleation score was “inactive”.
In the case of IHRNNNFFRRGYVWSYEEHH, the amyloid nucleation score is reported as “inactive”.
For IHSDLTVSCNIYWKSY, the amyloid nucleation score was 0.922 ± 0.14.
In the case of IHTQAFMGMFSLHWNHVFDL, the amyloid nucleation score is reported as “inactive”.
For IHYRANRCRRYCAFIYKAN, the amyloid nucleation score was “inactive”.
With IIDYRDQRVLESLRFYVLCS the amyloid nucleation score was “inactive”.
With IIFLQIPNLFMGNKTRQKGA the amyloid nucleation score was “inactive”.
With IIFNFFSRVLELLMLGYPYT the amyloid nucleation score was “inactive”.
For IIHEFFSTQLILYDCIDRWF, the amyloid nucleation score was “inactive”.
Work on IIHLNLSNVWYTPSGWYRVC yielded an amyloid nucleation score of 2.3 ± 0.063.
In the case of IILQNFPNRKYMCLGAKMAS, the amyloid nucleation score is reported as “inactive”.
In the case of IILRFDGFTMSSPRNLVIDG, the amyloid nucleation score is reported as “inactive”.
For IILRTWVSTLQSNSAIEVTL, the amyloid nucleation score was “inactive”.
With IIPKRLDVR the amyloid nucleation score was -0.397 ± 0.7.
In the case of IISHKQRSRVIVCSGS, the amyloid nucleation score is reported as “inactive”.
IISMVCED gave an amyloid nucleation score of 0.297 ± 0.32.
For IISSSL, the amyloid nucleation score was “inactive”.
For IIVLPEKRPR, the amyloid nucleation score was “inactive”.
For IKAVSYTVSVSPPCFSSKSH, the amyloid nucleation score was 0.402 ± 0.18.
With IKCDLRSSVAWDLSVILYSF the amyloid nucleation score was “inactive”.
With IKDGFQGNVFFAVDCFVAYD the amyloid nucleation score was “inactive”.
For IKGIPKSIGSSSLGLHNHTV, the amyloid nucleation score was “inactive”.
For IKKQYINSFIDSATMKGIKV, the amyloid nucleation score was “inactive”.
In the case of IKNEQSARRGASSCGGTADK, the amyloid nucleation score is reported as “inactive”.
For IKWEQRLVVYIAYKKHRWQR, the amyloid nucleation score was “inactive”.
For ILAHAHYVYVALARWPTYGY, the amyloid nucleation score was -0.35 ± 0.98.
With ILCANGYRSVFSYFLFGCAY the amyloid nucleation score was “inactive”.
Work on ILCCTCYLRDIDMVVGACDG yielded an amyloid nucleation score of 1.62 ± 0.063.
With ILDFDFTSLPNMMRGCRSHL the amyloid nucleation score was “inactive”.
Substance ILFNENITKMSLFNCDKFIC has an amyloid nucleation score of 1.1 ± 0.15.
With ILGFLCPLFSFFFSGGYFLG the amyloid nucleation score was “inactive”.
In the case of ILGIIMI, the amyloid nucleation score is reported as “inactive”.
For ILGIRYVIRINFLTRVRIHN, the amyloid nucleation score was “inactive”.
For ILHHTWYMF, the amyloid nucleation score was “inactive”.
ILIGPSGFMYLDVSFFQFQR gave an amyloid nucleation score of 0.856 ± 0.25.
For ILILFYLRFHNIRRYTCTFR, the amyloid nucleation score was “inactive”.
In the case of ILILS, the amyloid nucleation score is reported as “inactive”.
ILLALN showed an amyloid nucleation score of 0.03 ± 0.88.
Work on ILLGIEAPCVSITYYFKTFL yielded an amyloid nucleation score of 1.32 ± 0.13.
ILLSVSWGAR gave an amyloid nucleation score of 1.49 ± 0.13.
With ILMPKTVVTVYISNMCDYSQ the amyloid nucleation score was 2.58 ± 0.071.
For ILPPNWATSRVNAAGWFLGQ, the amyloid nucleation score was “inactive”.
In the case of ILPSYDLFEVVWLVRAD, the amyloid nucleation score is reported as “inactive”.
For ILPTAKKSKCGSHL, the amyloid nucleation score was “inactive”.
For ILRFGHPWDRRSK, the amyloid nucleation score was “inactive”.
For ILRPPKAA, the amyloid nucleation score was “inactive”.
Work on ILSIHSGFCWWMRGALNGKL yielded an amyloid nucleation score of 1.45 ± 0.14.
For ILSSGLGKHTGLIIAYESAR, the amyloid nucleation score was “inactive”.
In the case of ILVAGTAV, the amyloid nucleation score is reported as “inactive”.
In the case of ILVLTKRVCYGSLFRYAWAK, the amyloid nucleation score is reported as “inactive”.
For ILVVGALDLLCGVLTEYSCQ, the amyloid nucleation score was 1.1 ± 0.1.
For ILWMVSMLRYIIEG, the amyloid nucleation score was “inactive”.
For ILWSILVYLTLITVLCLCHF, the amyloid nucleation score was 0.444 ± 0.26.
For ILYLRVYITFVLIGNLEGFR, the amyloid nucleation score was “inactive”.
In the case of ILYSSYS, the amyloid nucleation score is reported as “inactive”.
For ILYWVYCSYSSNHDLYLFII, the amyloid nucleation score was “inactive”.
With IMGALLTYSRTTGRVNYRMW the amyloid nucleation score was “inactive”.
For IMICILHLC, the amyloid nucleation score was “inactive”.
In the case of IMIGKVLFFGVATRMSVLRL, the amyloid nucleation score is reported as “inactive”.
In the case of IMLLVGAWTVSYNSCGSDAR, the amyloid nucleation score is reported as “inactive”.
With IMQFGDFYIIQRERRSYVLW the amyloid nucleation score was 2.25 ± 0.087.
With IMSSVVYECFKVLRHSVMSG the amyloid nucleation score was “inactive”.
For IMVRSIISGFRLMESRKLDS, the amyloid nucleation score was “inactive”.
With INEWFGSKDFAETGHLEVRY the amyloid nucleation score was “inactive”.
With INGSNNATCWVSLSIMKARI the amyloid nucleation score was “inactive”.
With INIYSKELSNDGFSTLHYFM the amyloid nucleation score was “inactive”.
Work on INLGMP yielded an amyloid nucleation score of -0.279 ± 0.52.
For INLHFDITDWANNDLENKGH, the amyloid nucleation score was “inactive”.
Work on INLLVSVKGWYYVAPTAWYE yielded an amyloid nucleation score of 1.16 ± 0.15.
For INLVNTLFTIILMRSYRRTR, the amyloid nucleation score was 0.022 ± 0.31.
For INTGMASGSSGTYVSAGIEA, the amyloid nucleation score was “inactive”.
With INVPLALLSYGV the amyloid nucleation score was “inactive”.
For INVSLGHAGEGWVWLALHLR, the amyloid nucleation score was “inactive”.
For INYYFWTSGK, the amyloid nucleation score was 0.731 ± 0.3.
For IPERMRWVWEVTRAYNNYAW, the amyloid nucleation score was “inactive”.
For IPFGLANSRFNVFASVMSDC, the amyloid nucleation score was “inactive”.
In the case of IPFRLFQNDSEKMSWSCDVT, the amyloid nucleation score is reported as “inactive”.
With IPIVRTLNLLASTLTPLCR the amyloid nucleation score was “inactive”.
In the case of IPRVAWQSYILTSQ, the amyloid nucleation score is reported as “inactive”.
With IPSNHSINRCYLDIWAQFLG the amyloid nucleation score was “inactive”.
In the case of IQPCFIGIGVGYSRFVGRFF, the amyloid nucleation score is reported as 0.982 ± 0.22.
With IQYRGYGYMNSIWYGVERFF the amyloid nucleation score was 0.626 ± 0.28.
With IRASFEPWVLVRVFYSLCYG the amyloid nucleation score was “inactive”.
Substance IRCMSLYLHNGGVYRS has an amyloid nucleation score of 1.72 ± 0.069.
For IRERGLYEMNPYWCRGRKSM, the amyloid nucleation score was “inactive”.
With IRGASYPSATNRHAAMLVWM the amyloid nucleation score was “inactive”.
For IRHRTIWSYGSFY, the amyloid nucleation score was “inactive”.
With IRLKQQDFEGSGKLFNGGHL the amyloid nucleation score was “inactive”.
With IRLTVWDVNRDCR the amyloid nucleation score was “inactive”.
In the case of IRLYFQYFLLSG, the amyloid nucleation score is reported as 2.35 ± 0.063.
For IRRCPGMKVCWLYLKC, the amyloid nucleation score was “inactive”.
For IRSCIIRSFTYMLGLH, the amyloid nucleation score was “inactive”.
With IRSDTVSTARPGNLTNC the amyloid nucleation score was “inactive”.
